In US20180291110A1 (Hoffmann-La Roche, published 2018):

Biological target: T1, human transferrin receptor (recombinant, for surface plasmon resonance) (human, UniProt P02786 89-760)
T1 construct: also called huTfR; human transferrin receptor-biotinylated
Assay: SPR 25C

T1 sequence (P02786 89-760 limits assumed): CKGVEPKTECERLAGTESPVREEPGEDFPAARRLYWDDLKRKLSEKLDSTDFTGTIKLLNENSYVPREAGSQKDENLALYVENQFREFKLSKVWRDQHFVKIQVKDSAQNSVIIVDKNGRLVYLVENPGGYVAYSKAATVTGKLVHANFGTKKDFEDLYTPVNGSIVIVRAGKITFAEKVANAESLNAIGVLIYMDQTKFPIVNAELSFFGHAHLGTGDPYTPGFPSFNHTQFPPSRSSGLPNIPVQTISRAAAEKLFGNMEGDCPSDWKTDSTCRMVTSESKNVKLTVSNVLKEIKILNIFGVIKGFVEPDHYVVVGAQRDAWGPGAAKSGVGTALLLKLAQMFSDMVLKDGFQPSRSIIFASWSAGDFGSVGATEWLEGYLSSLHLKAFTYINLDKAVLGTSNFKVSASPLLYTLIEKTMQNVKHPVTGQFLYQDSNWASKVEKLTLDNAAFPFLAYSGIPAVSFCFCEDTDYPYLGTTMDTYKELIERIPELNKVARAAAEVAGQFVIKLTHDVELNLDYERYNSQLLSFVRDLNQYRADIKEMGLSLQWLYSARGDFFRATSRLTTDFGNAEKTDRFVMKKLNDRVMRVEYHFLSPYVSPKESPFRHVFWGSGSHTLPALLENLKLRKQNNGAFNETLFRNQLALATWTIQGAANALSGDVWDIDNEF

Row | koff [s⁻¹] | Binder
1 | 0.00582 | 2/99 VH12/VL5 (antibody, V domains shown) VH: QVQLQESGPGLVKPSETLSLTCTVSGFSLSSYAMSWIRQPPGKGLEWIGYIWSGGSTDYNPSLKSRVTISVDTSKNQFSLKLSSVTAADTAVYYCARRYGTSYPDYGDANGFDPWGQGTLVTVSS VL: DIQMTQSPSSLSASVGDRVTITCRASQSISSYLSWYQQKPGKAPKLLIYRASTLASGVPSRFSGSGSGTDFTLTISSLQPEDFATYYCQQSYSSSNVDNTFGGGTKVEIK
2 | 0.00705 | 2/99 VH12/VL6 (antibody, V domains shown) VH: QVQLQESGPGLVKPSETLSLTCTVSGFSLSSYAMSWIRQPPGKGLEWIGYIWSGGSTDYNPSLKSRVTISVDTSKNQFSLKLSSVTAADTAVYYCARRYGTSYPDYGDANGFDPWGQGTLVTVSS VL: AIQLTQSPSSLSASVGDRVTITCRASQSISSYLSWYQQKPGKAPKLLIYRASTLASGVPSRFSGSGSGTDFTLTISSLQPEDFATYYCQQSYSSSNVDNTFGGGTKVEIK
3 | 0.00223 | 2/99 VH16/VL5 (antibody, V domains shown) VH: QQLQESGPGLVKPSETLSLTCTVSGFSLSSYAMSWVRQPPGKGLEWIGYIWSGGSTDYNPSLKSRVTISVDTSKNQVSLKLSSVTAADTAVYYCARRYGTSYPDYGDANGFDPWGPGTLVTVSS VL: DIQMTQSPSSLSASVGDRVTITCRASQSISSYLSWYQQKPGKAPKLLIYRASTLASGVPSRFSGSGSGTDFTLTISSLQPEDFATYYCQQSYSSSNVDNTFGGGTKVEIK
4 | 0.001 | 2/99 VH19/VL5 (antibody, V domains shown) VH: QSMQESGPGLVKPSQTLSLTCTVSGFSLSSYAMSWIRQHPGKGLEWIGYIWSGGSTDYAPSLKSRVTISVDTSKNQFSLKLSSVTAADTAVYYCARRYGTSYPDYGDANGFDPWGQGTLVTVSS VL: DIQMTQSPSSLSASVGDRVTITCRASQSISSYLSWYQQKPGKAPKLLIYRASTLASGVPSRFSGSGSGTDFTLTISSLQPEDFATYYCQQSYSSSNVDNTFGGGTKVEIK
5 | 0.00464 | 2/99 VH5/VL6 (antibody, V domains shown) VH: QSMEETGGGLIQPGGSLRLSCAASGFSLSSYAMSWVRQAPGKGLEWVGYIWSGGSTDYADSVKGRFTISRDNSKNTLYLQMNSLRAEDTAVYYCARRYGTSYPDYGDANGFDPWGPGTLVTVSS VL: AIQLTQSPSSLSASVGDRVTITCRASQSISSYLSWYQQKPGKAPKLLIYRASTLASGVPSRFSGSGSGTDFTLTISSLQPEDFATYYCQQSYSSSNVDNTFGGGTKVEIK
6 | 0.00214 | 2/99 VH15/VL5 (antibody, V domains shown) VH: QQLQESGPGLVKPSETLSLTCTVSGFSLSSYAMSWVRQPPGKGLEWIGYIWSGGSTDYNPSLKSRVTISVDTSKNQVSLKLSSVTAADTAVYYCARRYGTSYPDYGDANGFDPWGQGTLVTVSS VL: DIQMTQSPSSLSASVGDRVTITCRASQSISSYLSWYQQKPGKAPKLLIYRASTLASGVPSRFSGSGSGTDFTLTISSLQPEDFATYYCQQSYSSSNVDNTFGGGTKVEIK
7 | 0.00671 | 2/99 VH11/VL6 (antibody, V domains shown) VH: QQLLESGGGLVQPGGSLRLSCAASGFSLSSYAMSWVRQAPGKGLEWVGYIWSGGSTDYADSVKGRFTISRDNSKNTLYLQMNSLRAEDTAVYYCARRYGTSYPDYGDANGFDPWGQGTLVTVSS VL: AIQLTQSPSSLSASVGDRVTITCRASQSISSYLSWYQQKPGKAPKLLIYRASTLASGVPSRFSGSGSGTDFTLTISSLQPEDFATYYCQQSYSSSNVDNTFGGGTKVEIK
8 | 0.00141 | 2/99 VH22/VL5 (antibody, V domains shown) VH: QSMQESGPGLVKPSQTLSLTCTVSGFSLSSYAMSWVRQHPGKGLEWIGYIWSGGSTDYASWAKSRVTISVDTSKNQVSLKLSSVTAADTAVYYCARRYGTSYPDYGDANGFDPWGQGTLVTVSS VL: DIQMTQSPSSLSASVGDRVTITCRASQSISSYLSWYQQKPGKAPKLLIYRASTLASGVPSRFSGSGSGTDFTLTISSLQPEDFATYYCQQSYSSSNVDNTFGGGTKVEIK
9 | 0.0014 | 2/99 VH8/VL6 (antibody, V domains shown) VH: QQLVETGGGLIQPGGSLRLSCAASGFSLSSYAMSWVRQAPGKGLEWIGYIWSGGSTDYASWAKGRFTISKTSTTLYLQMNSLRAEDTAVYYCARRYGTSYPDYGDANGFDPWGQGTLVTVSS VL: AIQLTQSPSSLSASVGDRVTITCRASQSISSYLSWYQQKPGKAPKLLIYRASTLASGVPSRFSGSGSGTDFTLTISSLQPEDFATYYCQQSYSSSNVDNTFGGGTKVEIK
10 | 0.00088 | 2/99 VH23-DANG/VL5 (antibody, V domains shown) VH: QSMQESGPGLVKPSQTLSLTCTVSGFSLSSYAMSWIRQHPGKGLEWIGYIWSGGSTDYASWAKSRVTISKTSTTVSLKLSSVTAADTAVYYCARRYGTSYPDYGDANGFDPWGQGTLVTVSS VL: DIQMTQSPSSLSASVGDRVTITCRASQSISSYLSWYQQKPGKAPKLLIYRASTLASGVPSRFSGSGSGTDFTLTISSLQPEDFATYYCQQSYSSSNVDNTFGGGTKVEIK
11 | 0.0035 | 2/99 VH15/VL6 (antibody, V domains shown) VH: QQLQESGPGLVKPSETLSLTCTVSGFSLSSYAMSWVRQPPGKGLEWIGYIWSGGSTDYNPSLKSRVTISVDTSKNQVSLKLSSVTAADTAVYYCARRYGTSYPDYGDANGFDPWGQGTLVTVSS VL: AIQLTQSPSSLSASVGDRVTITCRASQSISSYLSWYQQKPGKAPKLLIYRASTLASGVPSRFSGSGSGTDFTLTISSLQPEDFATYYCQQSYSSSNVDNTFGGGTKVEIK
12 | 0.00339 | 2/99 VH16/VL6 (antibody, V domains shown) VH: QQLQESGPGLVKPSETLSLTCTVSGFSLSSYAMSWVRQPPGKGLEWIGYIWSGGSTDYNPSLKSRVTISVDTSKNQVSLKLSSVTAADTAVYYCARRYGTSYPDYGDANGFDPWGPGTLVTVSS VL: AIQLTQSPSSLSASVGDRVTITCRASQSISSYLSWYQQKPGKAPKLLIYRASTLASGVPSRFSGSGSGTDFTLTISSLQPEDFATYYCQQSYSSSNVDNTFGGGTKVEIK
13 | 0.00123 | 2/99 VH17/VL5 (antibody, V domains shown) VH: QQLQESGPGLVKPSETLSLTCTVSGFSLSSYAMSWVRQPPGKGLEWIGYIWSGGSTDYNPSLKSRVTISKDTSKNQVSLKLSSVTAADTAVYYCARRYGTSYPDYGDANGFDPWGPGTLVTVSS VL: DIQMTQSPSSLSASVGDRVTITCRASQSISSYLSWYQQKPGKAPKLLIYRASTLASGVPSRFSGSGSGTDFTLTISSLQPEDFATYYCQQSYSSSNVDNTFGGGTKVEIK
14 | 0.00218 | 2/99 VH13/VL5 (antibody, V domains shown) VH: QVQLQESGPGLVKPSETLSLTCTVSGFSLSSYAMSWIRQPPGKGLEWIGYIWSGGSTDYNPSLKSRVTISVDTSKNQVSLKLSSVTAADTAVYYCARRYGTSYPDYGDANGFDPWGQGTLVTVSS VL: DIQMTQSPSSLSASVGDRVTITCRASQSISSYLSWYQQKPGKAPKLLIYRASTLASGVPSRFSGSGSGTDFTLTISSLQPEDFATYYCQQSYSSSNVDNTFGGGTKVEIK
15 | 0.00538 | 2/99 VH1/VL6 (antibody, V domains shown) VH: VQLVETGGGLIQPGGSLRLSCAASGFSLSSYAMSWVRQAPGKGLEWVGYIWSGGSTDYADSVKGRFTISRDNSKNTLYLQMNSLRAEDTAVYYCARRYGTSYPDYGDANGFDPWGQGTLVTVSS VL: AIQLTQSPSSLSASVGDRVTITCRASQSISSYLSWYQQKPGKAPKLLIYRASTLASGVPSRFSGSGSGTDFTLTISSLQPEDFATYYCQQSYSSSNVDNTFGGGTKVEIK
16 | 0.00137 | 2/99 VH21/VL5 (antibody, V domains shown) VH: QSMQESGPGLVKPSQTLSLTCTVSGFSLSSYAMSWIRQHPGKGLEWIGYIWSGGSTDYASWAKSRVTISVDTSKNQVSLKLSSVTAADTAVYYCARRYGTSYPDYGDANGFDPWGQGTLVTVSS VL: DIQMTQSPSSLSASVGDRVTITCRASQSISSYLSWYQQKPGKAPKLLIYRASTLASGVPSRFSGSGSGTDFTLTISSLQPEDFATYYCQQSYSSSNVDNTFGGGTKVEIK
17 | 0.00683 | 2/99 VH9/VL6 (antibody, V domains shown) VH: QQLLESGGGLVQPGGSLRLSCAASGFTFSSYAMSWVRQAPGKGLEWVGYIWSGGSTDYADSVKGRFTISRDNSKNTLYLQMNSLRAEDTAVYYCAKRYGTSYPDYGDANGFDPWGQGTLVTVSS VL: AIQLTQSPSSLSASVGDRVTITCRASQSISSYLSWYQQKPGKAPKLLIYRASTLASGVPSRFSGSGSGTDFTLTISSLQPEDFATYYCQQSYSSSNVDNTFGGGTKVEIK
18 | 0.00352 | 2/99 VH20/VL5 (antibody, V domains shown) VH: QSMQESGPGLVKPSQTLSLTCTVSGFSLSSYAMSWIRQHPGKGLEWIGYIWSGGSTDYAPSLKSRVTISVDTSKNQVSLKLSSVTAADTAVYYCARRYGTSYPDYGDANGFDPWGQGTLVTVSS VL: DIQMTQSPSSLSASVGDRVTITCRASQSISSYLSWYQQKPGKAPKLLIYRASTLASGVPSRFSGSGSGTDFTLTISSLQPEDFATYYCQQSYSSSNVDNTFGGGTKVEIK
19 | 0.00555 | 2/99 VH2/VL6 (antibody, V domains shown) VH: EVQLVETGGGLIQPGGSLRLSCAASGFSLSSYAMSWVRQAPGKGLEWVGYIWSGGSTDYADSVKGRFTISRDNSKNTLYLQMNSLRAEDTAVYYCARRYGTSYPDYGDANGFDPWGQGTLVTVSS VL: AIQLTQSPSSLSASVGDRVTITCRASQSISSYLSWYQQKPGKAPKLLIYRASTLASGVPSRFSGSGSGTDFTLTISSLQPEDFATYYCQQSYSSSNVDNTFGGGTKVEIK
20 | 0.00306 | 2/99 VH6/VL6 (antibody, V domains shown) VH: QQLVETGGGLIQPGGSLRLSCAASGFSLSSYAMSWVRQAPGKGLEWIGYIWSGGSTDYADSVKGRFTISRDNSKNTLYLQMNSLRAEDTAVYYCARRYGTSYPDYGDANGFDPWGQGTLVTVSS VL: AIQLTQSPSSLSASVGDRVTITCRASQSISSYLSWYQQKPGKAPKLLIYRASTLASGVPSRFSGSGSGTDFTLTISSLQPEDFATYYCQQSYSSSNVDNTFGGGTKVEIK
21 | 0.00365 | 2/99 VH13/VL6 (antibody, V domains shown) VH: QVQLQESGPGLVKPSETLSLTCTVSGFSLSSYAMSWIRQPPGKGLEWIGYIWSGGSTDYNPSLKSRVTISVDTSKNQVSLKLSSVTAADTAVYYCARRYGTSYPDYGDANGFDPWGQGTLVTVSS VL: AIQLTQSPSSLSASVGDRVTITCRASQSISSYLSWYQQKPGKAPKLLIYRASTLASGVPSRFSGSGSGTDFTLTISSLQPEDFATYYCQQSYSSSNVDNTFGGGTKVEIK
22 | 0.00349 | 2/99 VH18/VL5 (antibody, V domains shown) VH: QVQLQESGPGLVKPSQTLSLTCTVSGFSLSSYAMSWIRQHPGKGLEWIGYIWSGGSTDYAPSLKSRVTISVDTSKNQFSLKLSSVTAADTAVYYCARRYGTSYPDYGDANGFDPWGQGTLVTVSS VL: DIQMTQSPSSLSASVGDRVTITCRASQSISSYLSWYQQKPGKAPKLLIYRASTLASGVPSRFSGSGSGTDFTLTISSLQPEDFATYYCQQSYSSSNVDNTFGGGTKVEIK
